According to PMC2916701 (Molecular cell, 2010):
“And” between values parts separate entries of the source, which are not always exact repeats. Equal entries are not always repeated.

B1: His6-Cdc15(F-BAR) (amino acids 19-295) (domain or fragment, S. pombe, UniProt Q09822 19-295, looked up)
chain: SVKFRDNFWGSEDAGMDALMSRTKSSLSVLESIDEFYAKRASIEREYASKLQELAASSADIPEVGSTLNNILSMRTETGSMAKAHEEVSQQINTELRNKIREYIDQTEQQKVVAANAIEELYQKKTALEIDLSEKKDAYEYSCNKLNSYMRQTKKMTGRELDKYNLKIRQAALAVKKMDAEYRETNELLLTVTREWIDRWTEVCDAFQHIEEYRLEFLKTNMWAYANIISTACVKDDESCEKIRLTLENTNIDEDITQMIQNEGTGTTIPPLPEFND
B2: hyperphosphorylated Cdc15-TAP (natural protein, S. pombe, UniProt Q09822 1-927, looked up)
chain: MEVNGVSQSEAAPYVTKSSVKFRDNFWGSEDAGMDALMSRTKSSLSVLESIDEFYAKRASIEREYASKLQELAASSADIPEVGSTLNNILSMRTETGSMAKAHEEVSQQINTELRNKIREYIDQTEQQKVVAANAIEELYQKKTALEIDLSEKKDAYEYSCNKLNSYMRQTKKMTGRELDKYNLKIRQAALAVKKMDAEYRETNELLLTVTREWIDRWTEVCDAFQHIEEYRLEFLKTNMWAYANIISTACVKDDESCEKIRLTLENTNIDEDITQMIQNEGTGTTIPPLPEFNDYFKENGLNYDIDQLISKAPSYPYSSSRPSASASLASSPTRSAFRPKTSETVSSEVVSSPPTSPLHSPVKPVSNEQVEQVTEVELSIPVPSIQEAESQKPVLTGSSMRRPSVTSPTFEVAARPLTSMDVRSSHNAETEVQAIPAATDISPEVKEGKNSENAITKDNDDIILSSQLQPTATGSRSSRLSFSRHGHGSQTSLGSIKRKSIMERMGRPTSPFMGSSFSNMGSRSTSPTKEGFASNQHATGASVQSDELEDIDPRANVVLNVGPNMLSVGEAPVESTSKEEDKDVPDPIANAMAELSSSMRRRQSTSVDDEAPVSLSKTSSSTRLNGLGYHSRNTSIASDIDGVPKKSTLGAPPAAHTSAQMQRMSNSFASQTKQVFGEQRTENSARESLRHSRSNMSRSPSPMLSRRSSTLRPSFERSASSLSVRQSDVVSPAPSTRARGQSVSGQQRPSSSMSLYGEYNKSQPQLSMQRSVSPNPLGPNRRSSSVLQSQKSTSSNTSNRNNGGYSGSRPSSEMGHRYGSMSGRSMRQVSQRSTSRARSPEPTNRNSVQSKNVDPRATFTAEGEPILGYVIALYDYQAQIPEEISFQKGDTLMVLRTQEDGWWDGEIINVPNSKRGLFPSNFVQTV
modifications: hyperphosphorylated at many sites (sites not given; Supp. Table 1)

Columns and labels:
[1] = target: the molecule itself; experiment: negative stain electron microscopy
[2] = target: the molecule itself; experiment: AUC

Row | Protein | binding result [1] | stoichiometry N [2]
1 | B1 | binds | –
2 | B2 | – | 2 and 4
